Laboratory results from patent US20200339702A1 (ULTRAHUMAN THIRTEEN, published 2020).

Tests used:
human insulin = biological target: T1, human insulin (human, UniProt P01308 25-54; P01308 90-110, limits assumed); assay: polyreactivity ELISA on human insulin, score
T1 construct: Off-target protein in the development risk (polyreactivity) ELISA

[1] = biological target: T2, human ERBB3 His tagged, monomeric (human, UniProt P21860 20-643, biotinylated in the Alphascreen assays (sites not given)); assay: Alphascreen competition, solution phase; competitor h24C05 IgG1
T2 construct: Used unbiotinylated as Biacore analyte and biotinylated in Alphascreen; treated as one molecule; also called human ERBB3-His (Acrobiosystems); biotinylated monomeric human ERBB3

[2] = biological target: T3, human ERBB3 human Fc tagged recombinant protein (human, UniProt P21860 20-643); assay: direct binding ELISA on coated human ERBB3-Fc, IgG1 titrated
T3 construct: also called human ERBB3-Fc; huERBB3
Method: (§1) Binding and cross-reactivity of the lead panel to the recombinant proteins was initially assessed by binding ELISA. The human ERBB3 human Fc tagged recombinant protein and the rhesus monkey ERBB3 human Fc tagged recombinant protein were coated to the surface of MaxiSorp™ flat-bottom 96 well plate at 1 μg/ml. The purified IgG samples were titrated in two fold serial dilutions starting from 500 nM to 0.008 nM and allowed to bind to the coated antigens. The Fabs were detected using mouse anti-c-myc antibody followed by donkey anti-mouse IgG conjugated to horseradish peroxidase. The IgGs were detected using the mouse anti-human IgG conjugated to horseradish peroxidase. Binding signals were visualized with 3,3′,5,5′-Tetramethylbenzidine Substrate Solution (TMB) and the absorbance measured at 450 nm.

[3] = biological target: T4, rhesus monkey ERBB3 human Fc tagged recombinant protein (rhesus monkey (Macaca mulatta), UniProt P21860 20-643 (human entry), limits assumed); assay: direct binding ELISA on coated rhesus ERBB3-Fc, IgG1 titrated
T4 construct: also called rhesus ERBB3-Fc; rhERBB3
T4 chain: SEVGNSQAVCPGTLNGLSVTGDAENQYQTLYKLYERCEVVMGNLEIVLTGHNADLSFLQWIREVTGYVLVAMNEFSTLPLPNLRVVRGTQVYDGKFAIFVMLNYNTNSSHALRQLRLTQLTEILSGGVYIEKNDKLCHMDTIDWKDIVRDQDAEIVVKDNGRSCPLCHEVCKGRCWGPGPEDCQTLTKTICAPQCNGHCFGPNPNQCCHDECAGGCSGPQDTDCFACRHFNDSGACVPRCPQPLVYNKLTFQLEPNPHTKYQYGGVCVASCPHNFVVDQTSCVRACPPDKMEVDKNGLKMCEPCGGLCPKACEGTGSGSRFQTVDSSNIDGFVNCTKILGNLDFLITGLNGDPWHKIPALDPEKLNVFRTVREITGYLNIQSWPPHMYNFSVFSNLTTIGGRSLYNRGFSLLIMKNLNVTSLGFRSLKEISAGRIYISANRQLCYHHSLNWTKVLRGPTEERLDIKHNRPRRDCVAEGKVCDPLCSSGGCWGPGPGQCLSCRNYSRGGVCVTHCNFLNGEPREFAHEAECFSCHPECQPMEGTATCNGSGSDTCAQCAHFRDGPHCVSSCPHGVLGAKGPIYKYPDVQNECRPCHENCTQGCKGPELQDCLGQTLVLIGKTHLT
Method: as §1

[4] = biological target: T5, rhesus ERBB3 on transiently transfected HEK-293 cells (rhesus monkey (Macaca mulatta), UniProt P21860 20-1342 (human entry)); assay: flow cytometry, rhesus ERBB3-transfected HEK-293 cells, IgG1 titrated
T5 construct: also called rhesus ERBB3+ HEK-293 cells
T5 chain: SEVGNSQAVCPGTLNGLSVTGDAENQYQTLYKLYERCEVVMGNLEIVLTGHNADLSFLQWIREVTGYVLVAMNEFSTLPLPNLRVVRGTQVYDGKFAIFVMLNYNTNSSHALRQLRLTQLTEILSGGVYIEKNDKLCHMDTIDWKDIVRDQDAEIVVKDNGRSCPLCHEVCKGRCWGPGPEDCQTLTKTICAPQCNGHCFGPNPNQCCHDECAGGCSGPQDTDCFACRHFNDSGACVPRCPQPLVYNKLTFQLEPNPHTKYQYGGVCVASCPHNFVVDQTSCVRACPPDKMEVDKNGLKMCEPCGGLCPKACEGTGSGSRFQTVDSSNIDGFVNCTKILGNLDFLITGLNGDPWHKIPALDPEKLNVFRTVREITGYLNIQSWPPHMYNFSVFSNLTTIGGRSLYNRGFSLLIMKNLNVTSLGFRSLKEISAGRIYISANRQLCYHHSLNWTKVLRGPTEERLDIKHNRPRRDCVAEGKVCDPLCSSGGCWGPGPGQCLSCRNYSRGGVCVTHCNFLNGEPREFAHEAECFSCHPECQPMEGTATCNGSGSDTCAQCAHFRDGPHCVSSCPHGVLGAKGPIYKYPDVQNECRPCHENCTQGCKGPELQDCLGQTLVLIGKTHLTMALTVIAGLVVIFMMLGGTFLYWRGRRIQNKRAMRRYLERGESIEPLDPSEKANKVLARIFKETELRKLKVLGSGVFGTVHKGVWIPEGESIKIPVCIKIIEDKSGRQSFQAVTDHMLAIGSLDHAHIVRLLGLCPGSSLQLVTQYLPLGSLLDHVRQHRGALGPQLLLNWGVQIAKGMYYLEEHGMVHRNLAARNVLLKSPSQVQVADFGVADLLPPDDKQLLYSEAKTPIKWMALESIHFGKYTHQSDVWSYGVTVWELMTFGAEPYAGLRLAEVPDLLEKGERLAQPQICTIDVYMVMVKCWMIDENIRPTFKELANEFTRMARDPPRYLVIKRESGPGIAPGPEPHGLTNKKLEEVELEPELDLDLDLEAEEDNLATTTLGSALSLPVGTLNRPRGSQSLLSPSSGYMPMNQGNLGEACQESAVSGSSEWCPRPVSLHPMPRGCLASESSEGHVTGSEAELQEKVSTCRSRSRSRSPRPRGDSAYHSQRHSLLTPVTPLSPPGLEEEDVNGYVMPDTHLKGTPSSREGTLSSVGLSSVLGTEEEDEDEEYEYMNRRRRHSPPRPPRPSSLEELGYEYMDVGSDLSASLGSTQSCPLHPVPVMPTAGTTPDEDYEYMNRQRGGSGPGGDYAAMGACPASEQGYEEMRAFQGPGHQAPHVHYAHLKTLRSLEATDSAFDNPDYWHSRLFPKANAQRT
Method: Purified IgGs were tested in FACs for binding to human and rhesus monkey ERBB3 expressed on transiently transfected HEK-293 cells and HEK-293 wild-type cells. The IgG samples were titrated in three-fold serial dilutions starting at 500 nM to 0.008 nM. Binding of IgGs was detected with a mouse anti-human IgG conjugated to FITC. Results were analyzed by examining the Mean Fluorescence Intensity (MFI) of 10000 cells per sample in the BL-1 channel detector of a flow cytometer (Attune™ NxT Acoustic Focusing Cytometer, Invitrogen/ThermoFisher Scientific).

T1 sequence (P01308 25-54 limits assumed, chain 1 of 2): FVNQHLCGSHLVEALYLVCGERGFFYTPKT
T1 sequence (P01308 90-110 limits assumed, chain 2 of 2): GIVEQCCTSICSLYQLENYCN

binding result (human insulin): no binding
IC50 [1]: 1.25 nM
EC50 (read off the curve) [2]: ~0.1 nM
EC50 (read off the curve) [3]: ~0.1 nM
EC50 (read off the curve) [4]: ~0.2 nM
B1: h24C05 IgG1 (antibody, V domains shown)
VH: QVQLVESGGGLVKPGGSLRLSCAASGFTFSDYAMSWIRQAPGKGLEWVSTISDGGTYTYYPDNVKGRFTISRDNAKNSLYLQMNSLRAEDTAVYYCAREWGDYDGFDYWGQGTLVTVSS
VL: DIQMTQSPSSLSASVGDRVTITCRASQEISGYLSWFQQKPGKAPKSLIYAASTLDSGVPSRFSGSGSGTDFTLTISSLQPEDFATYYCLQYDSYPYTFGGGTKVEIK
notes: Human IgG1 and human Ckappa; also called humanized 24C05
